The record followed here is US20260070961A1 (Takeda / Millennium, published 2026).

The labels stand for the following.
B1: DENV3-8D4 (antibody, V domains shown)
VH: QEQLEESGGGLVKPGGTLTLTCTASGFSFSNVYYICWVRQAPGKGLEWIGCIGTGDGNTWYASWAKGRFTISKASSTTVILQVTSLTAADTATYFCARDIYSYDNTGVYTVPKLWGPGTLVTVSS
VL: AAVLTQTPSPVSAAVGGTVSISCQSSESVYSNNRLAWYQQKPGQPPKLLIYRASTLESGVPSRFKGSGSGTEFTLTISDVRCDDAATYYCAGGYSGSSDKGFGGGTEVVVK
B2: DENV3-12H6 (antibody, V domains shown)
VH: QEQLEESGGDLVKPEGSLTLTCKASGIDFSSSYWICWVRQAPGKGLEWIGCIYTGSSTTWYAAWAKGRFTISKPSSTTVTLQMTSLTAADTATYFCARFYDVGVYFNLWGPGTLVTVSS
VL: AIVMTQTPSSKSVPVGDTVTINCQASESISSWLAWYQQKPGQPPKLLIYLASTLASGVPSRFKGSGSGTQFTLTISDVVCDDAATYYCAGYKSSVTDGFAFGGGTEVVVK
B3: DENV3-5D7 (antibody, V domains shown)
VH: QSLEESGGDLVKPGASLTLTCTASGFSFSSGYDMCWVRQAPGKGLEWIACIYITDTGSSYYATWARGRFTISKTSSTSVTLQVTSLTAADTATYFCAKTNYGSGGFAFNLWGPGTLVTVSS
VL: DVVMTQTPASVEARVGGTVTINCQASQSISNLLAWYQQKPGQPPKLLIYRASALESGVPSRFRGSGSGTEFTLTISDLECADAATYYCQCTYGGSSITNWAFGGGTEVVVK
notes: also called clone 5D7

One assay deals with T1, DENV3 Domain III protein (Dengue virus serotype 3).
T1 construct: domain: Domain III; also called TDV3 Domain III
Nature of the assay: BLI (Octet HTX), mAb coupled to AR2G biosensor, 20 ug/mL Domain III protein, response at 1200 sec.
For B1, the “Response (nm)” value is 0.248 nm.
The same measure, in the same setting: under B2 stands 0.0148 nm.
The same measure, in the same setting: under B3 stands 0.0178 nm.

A further assay deals with T2, DENV-3 VLP (Dengue virus serotype 3).
T2 construct: also called dengue 3 VLP; DENV-VLP
Nature of the assay: Luminex assay, VLP-conjugated MagPlex beads.
As to B1, the response was half-maximal at 0.115 µg/mL (EC50).
With B2, a half-maximal effect (EC50) was put at 0.11 µg/mL.
Still for that read-out and setting: the value for B3 was 0.025 µg/mL.

The target in a further assay is T2, DENV-3 VLP. Nature of the assay: BLI (Octet-HTX), IgG from supernatant captured on Protein A biosensor, 5 ug/mL DENV-VLP.
On to B1, for which the response amounted to 1.51.
As to B2, the response was found to be 1.39.
Still for that read-out and setting: under B3 stands 0.984.

Another assay concerns the target T2, DENV-3 VLP. Nature of the assay: BLI (Octet-HTX), IgG from supernatant captured on Protein A biosensor, 5 ug/mL DENV-VLP, 1:1 model.
With B1, the off-rate (koff) is less than 2e-05 s⁻¹.
In the case of B2, the koff was less than 2e-05 s⁻¹.
The molecule B3 displayed a koff of less than 2e-05 s⁻¹.
